Among the targets are GST H3 1-15 T6A (UniProt P68431); GST-H3 1-135 T6A (UniProt P68431); GST-H3 1-15 (UniProt P68431); GST-H3 16-30 (UniProt P68431); GST-H3 29-44 (UniProt P68431).
Data set [1] deals with H3K4me1 peptide (H3 tail residues 1-20) (UniProt P68431).
Data set [2] has as its target H3K4me1T6ph peptide (H3 tail residues 1-20) (UniProt P68431).
Data set [3] addresses H3K4me2 peptide (H3 tail residues 1-20) (UniProt P68431).
The target of data set [4] is H3K4me2T6ph peptide (H3 tail residues 1-20) (UniProt P68431).
The target of data set [5] is GST-H3 1-135 (full-length histone H3) (UniProt P68431).
Data set [6] concerns the target histone H3 in untreated nucleosomes purified from HeLa cells (UniProt P68431).

In the case of “bacterially expressed and purified His-LSD1”, the “demethylation assay, mass spectrometry” value in [1] is listed as “demethylation of H3K4me1 by LSD1”; in data set [2], “demethylation of H3K4me1 by LSD1 is completely abrogated in the presence of phosphorylated T6”; in [3] it was “The robust demethylation of H3K4me2 observed in the presence of LSD1”; in [4], “is completely blocked when the peptides are phosphorylated at T6”.

Take “purified recombinant active PKCβI (ProQinase)”: the “phosphorylation in the presence of [γ-32P]ATP (autoradiography)” value with GST H3 1-15 T6A was “mutation of threonine 6 to alanine in either H3 1-15 (H3 1-15 T6A) or in full length H3 (H3 1-135 T6A) abolishes phosphorylation”; in data set [5] it was “only full-length histone H3 (H3 1-135) and a H3 fragment spanning amino acid residues 1 to 15 (H3 1-15), but not H3 16-30 or H3 29-44, are phosphorylated by PKCβI”; in the data set with GST-H3 1-135 T6A, “mutation of threonine 6 to alanine in either H3 1-15 (H3 1-15 T6A) or in full length H3 (H3 1-135 T6A) abolishes phosphorylation”; in the data set with GST-H3 1-15 it was “only full-length histone H3 (H3 1-135) and a H3 fragment spanning amino acid residues 1 to 15 (H3 1-15), but not H3 16-30 or H3 29-44, are phosphorylated by PKCβI”; with GST-H3 16-30, “but not H3 16-30 or H3 29-44, are phosphorylated by PKCβI”; with GST-H3 29-44, “but not H3 16-30 or H3 29-44, are phosphorylated by PKCβI”. For the same substance, the “phosphorylation of nucleosomes at H3T6 (in vitro kinase assay, Western blot with α-H3T6ph)” value in data set [6] was “only PKCα, 131 and 132 phosphorylate nucleosomes at H3T6”.

As for “purified recombinant active PKCδ (ProQinase)”, the “phosphorylation of nucleosomes at H3T6 (in vitro kinase assay, Western blot with α-H3T6ph)” value in data set [6] was “only PKCα, 131 and 132 phosphorylate nucleosomes at H3T6 (PKCδ tested, no phosphorylation)”.
